Data on two molecules can be found in patent US11807881B2, “Polypeptide, fusion polypeptide, and antibiotic against gram-negative bacteria comprising same” (priority 2020, dated 2023).

Common to all, as to format: cell-based
One data set has as its system Pseudomonas aeruginosa. Put plainly: CFU reduction test (killing ability in vitro). How it is done:
For this, the endolysin LNT101 at a concentration of 0.1, 0.5, 1.0 μM and Pseudomonas aeruginosa (ATCC 13388) […] CFU were added so that the final volume was 200 μl to reaction buffer (20 mM Tris-Cl, pH 7.5) and they were left at 37° C. for […]. In 30 minutes, 1 hour and 2 hours, the number of colonies of Pseudomonas aeruginosa was confirmed, and the result was shown in FIG. 3.
(§1) In addition, that the LNT101 endolysin had the antibacterial ability in various gram negative bacterium was confirmed by a CFU reduction test, and the result was shown in Table 2 below.

The next data set relates to Enterobacter cloacae. In words: CFU reduction test. Particulars: E. cloacae CCARM 0252.
Excerpt: as §1

The next data set concerns Klebsiella aerogenes. In words: CFU reduction test. Particulars: K. aerugenes CCARM 16006.
Excerpt: as §1

The subject of another data set is Klebsiella pneumoniae. In words: Spot test (halo zone). More on the design: key: ‘◯’ means production of the halo zone. The note with it: K. pneumoniae KCTC 2261. An excerpt:
(§2) In the present example, in order to investigate a target bacteria spectrum of the bacteriophage PBPA90 selected in the Examples 1.1 and 1.2 and endolysin LNT101 separated and purifying in the Example 1.3, the antibacterial activity against gram negative bacterium such as Pseudomonas aeruginosa ATCC13388, ATCC9027, ATCC10145, ATCC15692, ATCC15522, ATCC25619, ATCC27853, CCARM2134, CCARM2200, CCARM2029, CCARM2144, CCARM2298, CCARM2326, PR01957, E. coli ATCC8739, Enterobacter cloacae CCARM0252, Klebsiella pneumoniae KCTC2261, Klebsiella aerogenes CCARM16006, Campylobacter jejuni KCTC5327, Cronobacter sakazakii KCTC2949, Salmonella typhimurium ATCC14028, Salmonella enteritidis ATCC13076 was tested.
(§3) The target bacteria spectrum of the bacteriophage PBPA90 and endolysin LNT101 was confirmed by a spot test. For the spot test, bacterium sterilized in 4 ml top agar (1% Tryptone, 0.5% Yeast extract, 0.5% NaCl, 0.7% agar) of 1×10^11 CFU/200 μl were added and poured to a LB plate. After hardening the top agar, the bacteriophage PBPA90 10 μl (1×10^8 PFU/ml) or LNT101 10 μl (2 mg/ml) was spotted, and it was incubated at 37° C. for 18 hours.

A further data set concerns Salmonella typhimurium. In words: Spot test (halo zone). The arrangement: key: ‘◯’ means production of the halo zone. The note with it: S. typhimurium ATCC 14028.
Excerpt: as §2, §3

The subject of a further data set is Huh-7 cell line. On the procedure:
In vitro toxicity of the fusion polypeptide LNT103 was evaluated by cell cytotoxicity assay (WST assay) using Huh-7 cell line and hemolysis assay using sheep blood (MB cell).
The process of progressing the cell cytotoxicity assay was as follows. The Huh07 cell culture solution was prepared and aliquoted in an amount of […] per well in a 96 well plate, and it was cultured in a CO2 incubator for 24 hours. Then, PBS as a negative control and 1% (w/v) triton X-100 as a positive control were treated, and as an experimental group, the fusion polypeptide LNT103 was treated at a concentration of 0.25, 0.5, or 1 mg/ml, and then it was left in a CO2 incubator for 24 hours and 48 hours. Then, the cell viability was measured using D-Plus™ CCK cell viability assay kit (Dongin LS), and the result was shown in FIG. 18.

B1: LNT101: endolysin derived from bacteriophage PBPA90, amino acid sequence SEQ ID NO: 1 (259 aa), purified with 6× His tag (protein)
chain: MGTVLKRGDRGSAVEDLQMKLRVAGYAVSADGIFGGDTEKAVRDFQASKALVVDGKVGPATLAELAKSATVPAKWEAIPFPTANKSRSAAMPTLNAVGAMTGTDSRLLATFASIESAFDYTVKASTSSATGWFQFLDATWDDMIKAHGSKYGIPKDPTRALRKDPRANALMGAEFLKGNAAVLRPVINREPSDTDLYLAHFLGAGGAKKFLSADQKTLGEVLFPKPAKANPSIFSNKGVPRTLAEIYKLFEDKVSKHRA
modifications: 6xHis tag; synthetic_Endolysin LNT101
For the molecule B1, the “killing ability against Pseudomonas aeruginosa (number of colonies)” value in the data set on Pseudomonas aeruginosa (ATCC 13388 10^6 CFU, 0.1, 0.5, 1.0 μM, 30 minutes, 1 hour and 2 hours, 37° C.) is “had the killing ability against Pseudomonas aeruginosa in all the tested treatment dose and time”. The CFU reduction result in the data set on Pseudomonas aeruginosa (P. aeruginosa ATCC 13388), in the data set on Pseudomonas aeruginosa (P. aeruginosa ATCC 15522), in the data set with Pseudomonas aeruginosa (P. aeruginosa CCARM 2092), in the data set on Pseudomonas aeruginosa (P. aeruginosa CCARM 2134), in the data set on Pseudomonas aeruginosa (P. aeruginosa CCARM 2144) and with Pseudomonas aeruginosa (P. aeruginosa CCARM 2326) was “◯ (‘◯’ means reduction of 0.5 log CFU or more through the CFU reduction assay)” throughout. Further, the CFU reduction entry in the data set on Pseudomonas aeruginosa (P. aeruginosa F141), with Pseudomonas aeruginosa (P. aeruginosa PAO1), in the data set with Enterobacter cloacae and in the data set on Klebsiella aerogenes was “◯ (‘◯’ means reduction of 0.5 log CFU or more through the CFU reduction assay)” each time. Also, the “production of the halo zone” value in the data set with Klebsiella pneumoniae and in the data set with Salmonella typhimurium was “◯” throughout.

B2: LNT103: fusion polypeptide [Cecropin A]-[linker (GSGSGS)]-[endolysin LNT102]; SEQ ID NO: 15 (MAS, His tag) used in the tests (protein)
chain: MASKWKLFKKIEKVGQNIRDGIIKAGPAVAVVGQATQIAKGSGSGSMGTVLKRGDRGSAVEDLQMKLNVAGYNLSADGIFGGDTEKAVRDVQAGAGLVVDGKVGPKTLYAIAKSATVPAKWEAIPFPTANKSRSAAMPTLNAVGAMTGVDSRLLATFASIESAFDYTVKAKTSSATGWFQFLDATWDDMIKAYGSKYGIPKDPTRALRKDPRANALMGAEFIKGNAAVLRPVINREPSDTDLYLAHFLGAGGAKKFLSADQKTLGEVLFPKPAKANPSIFSNKGVPRTLAEIYKLFEDKVSKHRALEHHHHHH
modifications: synthetic_Fusion Polypeptide LNT103 with MAS, His tag, and extra sequence
B2: in the data set on Huh-7 cell line, the “IC50 (cytotoxicity)” value was more than 1000 µg/mL.
